Measured values as given in patent US20260242478A1 (published 2026).
Where no end group is shown, it is not given here.

Legend:
[1] = target: T1, Anti-PSMA Fab (SEQ ID NOs: 19, 20); assay: phage ELISA; biotinylated PSMA Fab on neutravidin plate, clonal phage supernatant, anti-M13-HRP detection;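 also: wells were preincubated with blocking buffer containing PSMA antigen or with blocking buffer only, then phage supernatant was added without washing for a brief incubation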
T1 construct: Biotinylated and captured on neutravidin coated plates in the phage ELISA; also called 006 PSMA Fab
Protocol: (§1) Clonal phage were harvested as crude supernatants and screened via standard ELISAs. […] Prior to the addition of clonal phage. wells were incubated with blocking buffer and PSMA antigen or blocking buffer alone. Without washing or aspirating, clonal phage supernatants were then added to the wells and incubated for a short time. Wells were then washed followed by detection of bound phage using a horse radish conjugated anti-M13 antibody.

[2] = target: T1, Anti-PSMA Fab (SEQ ID NOs: 19, 20); assay: phage ELISA; PSMA Fab on plate pre-incubated with PSMA antigen as competitor, anti-M13-HRP detection;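 also: clonal phage from crude supernatants added without washing to wells preblocked with or without PSMA antigen, washed, bound phage read out by ELISA with HRP-linked anti-M13 antibody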
Protocol: as §1

[3] = target: T2, Anti-PSMA Fab (SEQ ID NOs: 19, 20); assay: as above; remark: listed apart in the source
T2 construct: Biotinylated and captured on neutravidin coated plates in the phage ELISA; also called 006 PSMA Fab
Protocol: as §1

[4] = target: T2, Anti-PSMA Fab (SEQ ID NOs: 19, 20); assay: phage ELISA; biotinylated PSMA Fab on neutravidin plate, bound phage detected with anti-M13-HRP;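 also: crude clonal phage supernatants added, without a wash, to wells pretreated with PSMA antigen in blocking buffer or with blocking buffer only, then briefly incubated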
Protocol: as §1

[5] = target: T3, Anti-CD28 Fab (SEQ ID NOs: 696, 697); assay: phage binding ELISA; Fab coated wells pre-incubated with CD28 antigen as competitor, anti-M13 HRP detection
T3 construct: Biotinylated and captured on neutravidin coated plates in the phage ELISA
Protocol: (§2) Clonal phage were harvested as crude supematants and screened via standard ELISAs. […] Prior to the addition of clonal phage, wells were incubated with blocking buffer and CD28 antigen or blocking buffer alone. Without washing or aspirating, clonal phage supematants were then added to the wells and incubated for a short time. Wells were then washed followed by detection of bound phage using a horse radish conjugated anti-M13 antibody.

[6] = target: T3, Anti-CD28 Fab (SEQ ID NOs: 696, 697); assay: phage binding ELISA; biotinylated anti-CD28 Fab on neutravidin plate, clonal phage supernatant, anti-M13 HRP detection;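 also: wells pretreated with blocking buffer, either plus or minus CD28 antigen, then given crude phage supernatant briefly without washing in between, then washed before anti-M13 HRP readout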
Protocol: as §2

T3 sequence (VH, as listed by the source, chain 1 of 2): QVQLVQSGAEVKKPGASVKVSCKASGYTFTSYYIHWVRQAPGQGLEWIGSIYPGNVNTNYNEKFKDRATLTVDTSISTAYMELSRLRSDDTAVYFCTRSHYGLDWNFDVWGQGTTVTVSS
T3 sequence (VL, as listed by the source, chain 2 of 2): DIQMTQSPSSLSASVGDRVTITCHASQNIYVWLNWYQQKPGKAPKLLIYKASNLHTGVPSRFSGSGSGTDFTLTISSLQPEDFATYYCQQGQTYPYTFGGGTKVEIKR

| Binder | Phage binding ELISA, Anti-PSMA Fab signal [1] | Phage binding ELISA, Anti-PSMA Fab signal in the presence of PSMA [2] | Anti-CD28 Fab signal in the presence of CD28 [5] | Anti-CD28 Fab (SEQ ID NOs: 696, 697) signal [6] | further results |
| --- | --- | --- | --- | --- | --- |
| FDKWCIPTWMCELV (tested as crude phage supernatant) [Phage-1994] | 1.86 | 0.145 |  |  |  |
| PEKWCIPEWMCDAL (Tested as clonal phage supernatant, with the peptide fused to pIII of the bacteriophage; Read from the row with '-' as the Peptide-180 residue: PEKWCIPEWMCDAL) [Phage-2214] |  |  |  |  | Phage binding ELISA, Anti-PSMA Fab signal in the presence of PSMA [3]: 0.0578; Phage binding ELISA, Anti-PSMA Fab signal [4]: 1.6 |
| YCAGHSHEYLAKCE (also called YCAGHSHEYLAKCE) [Phage-477] |  |  | 0.06 | 0.86 |  |
| TCAAGAAWPWPQCL [Phage-1337] |  |  | 0.08 | 2.23 |  |
| WAQWCTPSWMCEGF (Tested as clonal phage supernatant, with the peptide fused to pIII of the bacteriophage) [Phage-2216] |  |  |  |  | Phage binding ELISA, Anti-PSMA Fab signal in the presence of PSMA [3]: 0.0929; Phage binding ELISA, Anti-PSMA Fab signal [4]: 1.59 |
| LCAAGATYPWPLCL [Phage-1341] |  |  | 0.07 | 2.39 |  |
| LCAAGATYPWPTCL [Phage-1344] |  |  | 0.06 | 1.71 |  |
| TEKWCIPSWMCEIS (Tested as clonal phage supernatant, with the peptide fused to pIII of the bacteriophage) [Phage-2212] |  |  |  |  | Phage binding ELISA, Anti-PSMA Fab signal in the presence of PSMA [3]: 0.0837; Phage binding ELISA, Anti-PSMA Fab signal [4]: 1.6 |
| QDHWCVPQWMCEML (Tested as clonal phage supernatant, with the peptide fused to pIII of the bacteriophage) [Phage-2209] |  |  |  |  | Phage binding ELISA, Anti-PSMA Fab signal in the presence of PSMA [3]: 0.07; Phage binding ELISA, Anti-PSMA Fab signal [4]: 1.61 |
| VPKQCVPEWMCSGF (Tested as clonal phage supernatant, with the peptide fused to pIII of the bacteriophage) [Phage-2218] |  |  |  |  | Phage binding ELISA, Anti-PSMA Fab signal in the presence of PSMA [3]: 0.0779; Phage binding ELISA, Anti-PSMA Fab signal [4]: 1.59 |
| GSNWCKPAWMCEIM (tested as crude phage supernatant) [Phage-1996] | 1.86 | 0.0723 |  |  |  |
| VEKWCTPPWMCAGW (cysteine pairing not given here; also: displayed as fusion to phage pIII, tested as crude phage supernatant) [Phage-1987] | 1.87 | 0.0659 |  |  |  |
| GVKWCTPPWMCEVA (Tested as clonal phage supernatant, with the peptide fused to pIII of the bacteriophage) [Phage-2215] |  |  |  |  | Phage binding ELISA, Anti-PSMA Fab signal in the presence of PSMA [3]: 0.0672; Phage binding ELISA, Anti-PSMA Fab signal [4]: 1.59 |
| EPKLCTPTWMCIGF (tested as crude phage supernatant) [Phage-1989] | 1.87 | 0.118 |  |  |  |
| EVKWCIPSWMCESE (Tested as clonal phage supernatant, with the peptide fused to pIII of the bacteriophage) [Phage-2217] |  |  |  |  | Phage binding ELISA, Anti-PSMA Fab signal in the presence of PSMA [3]: 0.0904; Phage binding ELISA, Anti-PSMA Fab signal [4]: 1.59 |
| ALHWCIPEWMCSSM (Tested as clonal phage supernatant, with the peptide fused to pIII of the bacteriophage) [Phage-2208] |  |  |  |  | Phage binding ELISA, Anti-PSMA Fab signal in the presence of PSMA [3]: 0.103; Phage binding ELISA, Anti-PSMA Fab signal [4]: 1.61 |
| YCMGHSHEHIWKCL [Phage-476] |  |  | 0.07 | 0.87 |  |
| YCAGHTEEHYVKCM [Phage-475] |  |  | 0.07 | 0.62 |  |
| TCAAGAAWGWPLCF [Phage-1340] |  |  | 0.07 | 2.3 |  |
| EVKWCTPPWMCMFD (tested as crude phage supernatant) [Phage-1993] | 1.86 | 0.073 |  |  |  |
| TCSAGAAYSWPACF [Phage-1343] |  |  | 0.15 | 1.89 |  |
| LEKWCIPAWMCAVL (cysteine pairing not given here; also: fused to pIII of bacteriophage, Tested as clonal phage supernatant, with the peptide fused to pIII of the bacteriophage) [Phage-2206] |  |  |  |  | Phage binding ELISA, Anti-PSMA Fab signal in the presence of PSMA [3]: 0.078; Phage binding ELISA, Anti-PSMA Fab signal [4]: 1.61 |
| VGMLCKPSWMCDWL (tested as crude phage supernatant) [Phage-1982] | 1.88 | 0.0813 |  |  |  |

| Binder | Phage binding ELISA, Anti-PSMA Fab signal [1] | Phage binding ELISA, Anti-PSMA Fab signal in the presence of PSMA [2] | Anti-CD28 Fab signal in the presence of CD28 [5] | Anti-CD28 Fab (SEQ ID NOs: 696, 697) signal [6] | further results |
| --- | --- | --- | --- | --- | --- |
| PVKWCIPDWMCAYL (cysteine pairing not given here; also: displayed as fusion to phage pIII, tested as crude phage supernatant) [Phage-1992] | 1.86 | 0.115 |  |  |  |
| LMKWCIPEWMCVDS (tested as crude phage supernatant) [Phage-1990] | 1.87 | 0.0631 |  |  |  |
| MGKWCIPPWMCVVD (tested as crude phage supernatant) [Phage-1995] | 1.86 | 0.123 |  |  |  |
| YCAGHMPQYEVKCL [Phage-474] |  |  | 0.06 | 0.22 |  |
| PTKWCIPEWMCSVI (Tested as clonal phage supernatant, with the peptide fused to pIII of the bacteriophage) [Phage-2207] |  |  |  |  | Phage binding ELISA, Anti-PSMA Fab signal in the presence of PSMA [3]: 0.0587; Phage binding ELISA, Anti-PSMA Fab signal [4]: 1.61 |
| LDNWCRPLWMCTGF (tested as crude phage supernatant) [Phage-1988] | 1.87 | 0.0836 |  |  |  |
| TCSAGASYPWPLCL [Phage-1336] |  |  | 0.06 | 2.38 |  |
| TCSAGAAYPWPLCL [Phage-1342] |  |  | 0.08 | 2.36 |  |
| VVKMCRPAWMCDLV (tested as crude phage supernatant) [Phage-1984] | 1.88 | 0.0833 |  |  |  |
| TCAAGATWSWPACF [Phage-1339] |  |  | 0.07 | 2.23 |  |
| LCAAGASWPWPVCL [Phage-1335] |  |  | 0.08 | 2.16 |  |
| YEKWCTPPWMCEML (tested as crude phage supernatant) [Phage-1986] | 1.88 | 0.0833 |  |  |  |
| YCAGMSTIQLWLKC [Phage-473] |  |  | 0.09 | 2.16 |  |
| TCSAGATYTWPKCF [Phage-1338] |  |  | 0.06 | 1.87 |  |
| PPILCIPQWMCSPT (cysteine pairing not given here; also: displayed as fusion to phage pIII) [Phage-1981] | 1.88 | 0.0785 |  |  |  |
| IFEWCVPAWMCESR (tested as crude phage supernatant) [Phage-1983] | 1.88 | 0.104 |  |  |  |
| TCSAGATWPWPICL [Phage-1334] |  |  | 0.07 | 2 |  |
| THNWCTPQWMCDGF (Tested as clonal phage supernatant, with the peptide fused to pIII of the bacteriophage) [Phage-2210] |  |  |  |  | Phage binding ELISA, Anti-PSMA Fab signal in the presence of PSMA [3]: 0.0628; Phage binding ELISA, Anti-PSMA Fab signal [4]: 1.6 |
| VIPLCSPPWMCFMS (Tested as clonal phage supernatant, with the peptide fused to pIII of the bacteriophage) [Phage-2213] |  |  |  |  | Phage binding ELISA, Anti-PSMA Fab signal in the presence of PSMA [3]: 0.0631; Phage binding ELISA, Anti-PSMA Fab signal [4]: 1.6 |
| LVKWCTPSWMCINL (tested as crude phage supernatant) [Phage-1991] | 1.87 | 0.0883 |  |  |  |
| PGKWCIPAWMCSLV (Tested as clonal phage supernatant, with the peptide fused to pIII of the bacteriophage) [Phage-2211] |  |  |  |  | Phage binding ELISA, Anti-PSMA Fab signal in the presence of PSMA [3]: 0.157; Phage binding ELISA, Anti-PSMA Fab signal [4]: 1.6 |
| LENWCIPRWMCHGF (tested as crude phage supernatant) [Phage-1985] | 1.88 | 0.152 |  |  |  |
